Results as given in article PMC11329700.

Biological target: His-tagged mouse Endophilin A1 SH3 domain (mouse) (UniProt Q62420)
Test: ELISA; His-tagged mouse Endophilin A1 SH3 domain coated onto a 96-well plate, overlaid with increasing concentrations of GST-tagged Dyn1-PRR peptides; two experiments with four replicates each

His-tagged mouse Endophilin A1 SH3 domain (mouse), sequence (Q62420 290-349): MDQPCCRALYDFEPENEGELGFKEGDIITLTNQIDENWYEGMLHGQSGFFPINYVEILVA

| Substance | fold weaker affinity than xA 746-864 | fold lower affinity than xA 746-864 |
| --- | --- | --- |
| GST-Dyn1xA-PRR 751-798 (domain or fragment) | 9 fold |  |
| GST-Dyn1xB-PRR (dynamin 1xB proline-rich region, amino acids 746-851) (domain or fragment) |  | 3 fold |
